The record followed here is publication PMC3944691, “Crystallization and preliminary X-ray diffraction analysis of the amidase domain of allophanate hydrolase from Pseudomonas sp. strain ADP” (Acta Crystallographica. Section F, Structural Biology …, 2014).

In data set [1] the target is Allophanate hydrolase (AtzF) from Pseudomonas sp. strain ADP, His-tagged full-length (Pseudomonas sp. strain ADP). Briefly: SEC; purified full-length AtzF on Superdex 200 prep-grade, 50 mM HEPES, 100 mM NaCl pH 7.5; oligomeric state from apparent size (~360 kDa).
Data set [2] deals with the molecule itself. Briefly: SEC; purified AtzF467 on Superdex 200 prep-grade, 50 mM Tris, 100 mM NaCl pH 7.5; oligomeric state from apparent size (~110 kDa); data not shown.

Turning to “Allophanate hydrolase (AtzF) from Pseudomonas sp. strain ADP, His-tagged full-length (enzyme)”, the stoichiometry N – broadly, the number of molecules, sites or subunits per partner or assembly – in data set [1] was found to be 6.

B1: C-terminally truncated AtzF (AtzF467), first 467 amino acids of AtzF, N-terminally histidine-tagged (domain or fragment, Pseudomonas sp. strain ADP)
chain: MNDRAPHPERSGRVTPDHLTDLASYQAAYAAGTDAADVISDLYARIKEDGENPIWISLLPLESALAMLADAQQRKDKGEALPLFGIPFGVKDNIDVAGLPTTAGCTGFARTPRQHAFVVQRLVDAGAIPIGKTNLDQFATGLNGTRTPFGIPRCVFNENYVSGGSSSGSAVAVANGTVPFSLGTDTAGSGRIPAAFNNLVGLKPTKGLFSGSGLVPAARSLDCISVLAHTVDDALAVARVAAGYDADDAFSRKAGAAALTEKSWPRRFNFGVPAAEHRQFFGDAEAEALFNKAVRKLEEMGGTCISFDYTPFRQAAELLYAGPWVAERLAAIESLADEHPEVLHPVVRDIILSAKRMSAVDTFNGIYRLADLVRAAESTWEKIDVMLLPTAPTIYTVEDMLADPVRLNSNLGFYTNFVNLMDLSAIAVPAGFRTNGLPFGVTFIGRAFEDGAIASLGKAFVEHDLAK
notes: Allophanate hydrolase AtzF, Pseudomonas sp. strain ADP, first 467 amino acids (ends at Lys467), amidase domain; also called amidase domain of allophanate hydrolase; source: E. coli BL21 (λDE3), purified (Ni-NTA, Superdex 200 size exclusion); not shown: His6, N-terminal, kept
With B1, the “stoichiometry N” value in data set [2] was determined as 2.
